Data: the Human Domainome abundance scans (Beltran et al. 2025)
± gives the uncertainty stated by the source.

B1: Double-stranded RNA-specific adenosine deaminase, residues 296 to 358; numbered along this chain, P55265 (parent)
chain: MAEIKEKICDYLFNVSDSSALNLAKNIGLTKARDINAVLIDMERQGDVYRQGTTPPIWHLTDK

Variants of: B1
Assay: abundance fitness (aPCA) (normalised: wild type 0, dead -1); higher = more abundant; growth selection in yeast, the domain comes from the species named
Conditions: Homo sapiens

Row | Variant | abundance fitness
1 | MAEIKEKICFYLFNVSDSSALNLAKNIGLTKARDINAVLIDMERQGDVYRQGTTPPIWHLTDK | -0.653 ± 0.17
2 | MAEIKEKICEYLFNVSDSSALNLAKNIGLTKARDINAVLIDMERQGDVYRQGTTPPIWHLTDK | 0 ± 0.075
3 | MAEIKEKICDYLFNVSDSSALNLAKNIGLTKARDINAVLIDMERQGDVYRQGTTPPIWHSTDK | -0.437 ± 0.059
4 | MAEIKEKICDYLFNVSDSSALNLAKPIGLTKARDINAVLIDMERQGDVYRQGTTPPIWHLTDK | -0.629 ± 0.085
5 | MAEIKEKICDYLFNVSDSSALNLAKWIGLTKARDINAVLIDMERQGDVYRQGTTPPIWHLTDK | -0.327 ± 0.065
6 | MAEIKEKICDYLFNVYDSSALNLAKNIGLTKARDINAVLIDMERQGDVYRQGTTPPIWHLTDK | -0.684 ± 0.12
7 | MAEIKEKICDYLFNVSDSSALNLAKNIGLTKARDINAVLIDMERQGDVYRQGTKPPIWHLTDK | -0.024 ± 0.055
8 | MAEIKEKICDYLFNVSDSSALNLAKNIGLTKARDINAVLIDMERQGDVYRQGTTPPIWHLTMK | -0.409 ± 0.11
9 | MAEIKEKICDYLFNVSDSSALNLAKNIGLTKARDINAVLIDMERQGDVYRQGTTPPIWHLTEK | 0.072 ± 0.078
10 | MAEVKEKICDYLFNVSDSSALNLAKNIGLTKARDINAVLIDMERQGDVYRQGTTPPIWHLTDK | -0.293 ± 0.042
11 | MAEIKEKICDYLFNVSDSSALNLAKNIGLTKARDINAVLIDMERKGDVYRQGTTPPIWHLTDK | -0.492 ± 0.14
12 | MAEIKEKICDYLFNVSDSSALNLAKNIGLTKARDINAVLIDMERVGDVYRQGTTPPIWHLTDK | -0.075 ± 0.058
13 | MAEIKEKICDYLFNVSMSSALNLAKNIGLTKARDINAVLIDMERQGDVYRQGTTPPIWHLTDK | -0.499 ± 0.27
14 | YAEIKEKICDYLFNVSDSSALNLAKNIGLTKARDINAVLIDMERQGDVYRQGTTPPIWHLTDK | -0.327 ± 0.26
15 | CAEIKEKICDYLFNVSDSSALNLAKNIGLTKARDINAVLIDMERQGDVYRQGTTPPIWHLTDK | -0.545 ± 0.3
16 | MAEIKEKICDYLFNVSDSSALNLAKNIGLTKATDINAVLIDMERQGDVYRQGTTPPIWHLTDK | 0.263 ± 0.052
17 | MAKIKEKICDYLFNVSDSSALNLAKNIGLTKARDINAVLIDMERQGDVYRQGTTPPIWHLTDK | -0.21 ± 0.061
18 | MAGIKEKICDYLFNVSDSSALNLAKNIGLTKARDINAVLIDMERQGDVYRQGTTPPIWHLTDK | -0.18 ± 0.056
19 | MAEIKEKICDYLFNVSDSSALNLAKNIMLTKARDINAVLIDMERQGDVYRQGTTPPIWHLTDK | -0.805 ± 0.11
20 | MAEIKEKICDYFFNVSDSSALNLAKNIGLTKARDINAVLIDMERQGDVYRQGTTPPIWHLTDK | -0.727 ± 0.3
21 | MAEIKEKICDYLMNVSDSSALNLAKNIGLTKARDINAVLIDMERQGDVYRQGTTPPIWHLTDK | 0.339 ± 0.067

Row | Variant | abundance fitness
22 | MAEIKEKICDYLSNVSDSSALNLAKNIGLTKARDINAVLIDMERQGDVYRQGTTPPIWHLTDK | 0.403 ± 0.046
23 | MAEIKEKICDYLFNVSDSSALNLAKNIGLTKARDINAVLIDMETQGDVYRQGTTPPIWHLTDK | -0.043 ± 0.091
24 | MAEIKEKICDYLFNVSDSSALNAAKNIGLTKARDINAVLIDMERQGDVYRQGTTPPIWHLTDK | -0.368 ± 0.064
25 | MAEIKEKICDYLFNVSDSSALNHAKNIGLTKARDINAVLIDMERQGDVYRQGTTPPIWHLTDK | -0.453 ± 0.1
26 | MAEIKEKICDYLFNVSDSSALNRAKNIGLTKARDINAVLIDMERQGDVYRQGTTPPIWHLTDK | -0.592 ± 0.06
27 | MAEIKEKICDYLFNVSDSSALNLAKNIGLTKARDINAVLIDGERQGDVYRQGTTPPIWHLTDK | -0.485 ± 0.062
28 | MAEIKEKICDYLFNVSDSSALNLAKNIGLTKARDINAVLIDWERQGDVYRQGTTPPIWHLTDK | -0.795 ± 0.11
29 | MAEIKEKICDYLFNVSDSSATNLAKNIGLTKARDINAVLIDMERQGDVYRQGTTPPIWHLTDK | 0.125 ± 0.063
30 | MAEIKEKICDFLFNVSDSSALNLAKNIGLTKARDINAVLIDMERQGDVYRQGTTPPIWHLTDK | -0.056 ± 0.11
31 | MAEIKEKICDTLFNVSDSSALNLAKNIGLTKARDINAVLIDMERQGDVYRQGTTPPIWHLTDK | -0.341 ± 0.067
32 | MAEIWEKICDYLFNVSDSSALNLAKNIGLTKARDINAVLIDMERQGDVYRQGTTPPIWHLTDK | -0.465 ± 0.077
33 | MAEIKEKICDYLFNVSDSSALNLAKNIGLTKARDINAKLIDMERQGDVYRQGTTPPIWHLTDK | -0.387 ± 0.067
34 | MAEIKEKICDYLFNVSDSSALNLAKNIGLTKARDINARLIDMERQGDVYRQGTTPPIWHLTDK | -0.528 ± 0.049
35 | MAEIKEKICDYLFNVSDSSALNLAKNIGLTKARDINAVLIDMERQGDVYRQGTTPPIWPLTDK | -0.524 ± 0.062
36 | MAEIKEKICDYLFNVSDSSALNLAKNIGLTKARDINAVGIDMERQGDVYRQGTTPPIWHLTDK | -0.176 ± 0.05
37 | MAEIKEKICDYLFNVSDSSALNLAKNIGLTKARDINAVMIDMERQGDVYRQGTTPPIWHLTDK | -0.294 ± 0.059
38 | MAEIKEKICDYLFNVSDSSALNLAKNIGLTKARDINAVWIDMERQGDVYRQGTTPPIWHLTDK | -0.966 ± 0.13
39 | MAEIKEKICDYLFNVSDSSALNLAKNIGLTKARDFNAVLIDMERQGDVYRQGTTPPIWHLTDK | -0.681 ± 0.088
40 | MAEIKEKICDYLFNVSDSSALNLAKNIGLTQARDINAVLIDMERQGDVYRQGTTPPIWHLTDK | 0.097 ± 0.066
41 | MAEIKEKICDYLFNVSDSSALNLAKNIGLTVARDINAVLIDMERQGDVYRQGTTPPIWHLTDK | -0.67 ± 0.066
42 | MAEIKEKICDYLFNVSDSSALNLAKNIGLTFARDINAVLIDMERQGDVYRQGTTPPIWHLTDK | -0.695 ± 0.13
